Laboratory results as given in the supplement of paper PMC7877785.
± gives the uncertainty stated by the source.

Assay: self-splicing fitness, log relative to wild type (ln ratio); higher = more splicing; Tetrahymena group I intron in knt gene, E. coli kanamycin selection, DiMSum; sequences stand for … in CUCUCU…GGAGGGAAAAGUUAUCAGGCAUGCACCUGGUAGCUAGUCUUUAAACCAAUAGAUUGCAUCGGUUUAAAAGGCAAGACCGUCAAAUUGCGGGAAAGGGGUCAACAGCCGUUCAGUACCAAGUCUCAGGGGAAACUUUGAGAUGGCCUUGCAAAGGGUAUGGUAAUAAGCUGACGGACAUGGUCCUAACCACGCAGCCAAGUCCUAAGUCAACAGAUCUUCUGUUGAUAUGGAUGCAGUUCACAGACUAAAUGUCGGUCGGGGAAGAUGUAUUCUUCUCAUAAGAUAUAGUCGGACCUCUCCUUAAUGGGAGCUAGCGGAUGAAGUGAUGCAACACUGGAGCCGCUGGGAACUAAUUUGUAUGCGAAAGUAUAUUGAUUAGUUUUGGAGUACUCGUGGUCG
Method in brief: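 DiMSum derived fitness as the error-weighted combination of fold changes across replicates, kanamycin versus no kanamycin, normalised to wild type. E. coli BL21(DE3) held the library, which randomised all eight P1ex-region intron nucleotides within the knt kanamycin-resistance gene on pET-22b(+). Six replicate transformations grew overnight at 37°C or 30°C on LB agar with or without 25 μg/mL kanamycin, also containing 100 μg/mL carbenicillin, 50 μM IPTG and 0.2% rhamnose, and pooled colonies were amplicon-sequenced on an Illumina HiSeq 2500.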

Row | Sequence | self-splicing fitness (ln) (37 °C) | self-splicing fitness (ln) (30 °C)
1 | UGAGAGCAAUAUUACGAAAC | -1.1 ± 0.37 | –
2 | UGAGAGCAAUAUUACGACGG | -2.56 ± 0.25 | -2.66 ± 0.2
3 | UGAGAGCAAUAUUACGAGCG | -1.81 ± 0.31 | -1.84 ± 0.24
4 | UGAGAGCAAUAUUACGAUUA | -0.653 ± 0.3 | -0.816 ± 0.19
5 | UGAGAGCAAUAUUACGCACC | -1.15 ± 0.45 | -1.54 ± 0.26
6 | UGAGAGCAAUAUUACGCAUG | -2.09 ± 0.18 | -1.65 ± 0.13
7 | UGAGAGCAAUAUUACGCUAA | -2.53 ± 0.31 | -2.28 ± 0.31
8 | UGAGAGCAAUAUUACGCUUG | -1.55 ± 0.33 | -2.26 ± 0.36
9 | UGAGAGCAAUAUUACGCUUU | -1.96 ± 0.17 | -4.15 ± 0.29
10 | UGAGAGCAAUAUUACGGACG | -0.294 ± 0.41 | -1.67 ± 0.28
11 | UGAGAGCAAUAUUACGGAUC | -2.32 ± 0.49 | -1.94 ± 0.25
12 | UGAGAGCAAUAUUACGGCAU | -2.85 ± 0.33 | -2.88 ± 0.23
13 | UGAGAGCAAUAUUACGGCCA | – | -1.63 ± 0.25
14 | UGAGAGCAAUAUUACGGGAU | -1.77 ± 0.37 | –
15 | UGAGAGCAAUAUUACGGGGA | -2.77 ± 0.27 | -3.16 ± 0.43
16 | UGAGAGCAAUAUUACGUAGA | -1.28 ± 0.35 | -2.94 ± 0.33
17 | UGAGAGCAAUAUUACGUAUU | -1 ± 0.21 | -3.22 ± 0.34
18 | UGAGAGCAAUAUUACGUCUC | – | -1.78 ± 0.38
19 | UGAGAGCAAUAUUACGUGGG | -1.38 ± 0.2 | -2.83 ± 0.29
20 | UGAGAGCAAUAUUACGUUAA | -2.46 ± 0.3 | –
21 | UGAUAGCAAUAUUACGACAG | -1.59 ± 0.1 | -1.41 ± 0.11
22 | UGAUAGCAAUAUUACGACAU | -1.26 ± 0.035 | -2.587 ± 0.02
23 | UGAUAGCAAUAUUACGACCA | -0.327 ± 0.37 | -2.04 ± 0.23
24 | UGAUAGCAAUAUUACGAGCG | 0.433 ± 0.15 | -0.553 ± 0.11
25 | UGAUAGCAAUAUUACGAGGA | -2.82 ± 0.48 | -3.09 ± 0.3

Row | Sequence | self-splicing fitness (ln) (37 °C) | self-splicing fitness (ln) (30 °C)
26 | UGAUAGCAAUAUUACGAGGG | -2.38 ± 0.4 | –
27 | UGAUAGCAAUAUUACGCAGU | -2.51 ± 0.27 | -2.93 ± 0.44
28 | UGAUAGCAAUAUUACGCCCC | -0.875 ± 0.38 | -2.85 ± 0.43
29 | UGAUAGCAAUAUUACGCCCU | 0.0233 ± 0.21 | -0.0785 ± 0.15
30 | UGAUAGCAAUAUUACGCGAC | – | -3.55 ± 0.28
31 | UGAUAGCAAUAUUACGCUAG | -0.588 ± 0.078 | -1.09 ± 0.081
32 | UGAUAGCAAUAUUACGCUCU | 0.193 ± 0.15 | -1.41 ± 0.11
33 | UGAUAGCAAUAUUACGGGCA | 0.244 ± 0.12 | -0.911 ± 0.075
34 | UGAUAGCAAUAUUACGGGCG | 0.157 ± 0.1 | -0.568 ± 0.099
35 | UGAUAGCAAUAUUACGGGGU | -2.35 ± 0.28 | -2.68 ± 0.21
36 | UGAUAGCAAUAUUACGUCAC | -2.81 ± 0.22 | -4.14 ± 0.22
37 | UGAUAGCAAUAUUACGUCAU | -2.16 ± 0.2 | -3.03 ± 0.27
38 | UGAUAGCAAUAUUACGUGAA | -1.7 ± 0.16 | -3 ± 0.17
39 | UGAUAGCAAUAUUACGUGCA | 0.164 ± 0.076 | -0.486 ± 0.054
40 | UGAUAGCAAUAUUACGUGGU | -2.73 ± 0.23 | -2.4 ± 0.21
41 | UGCAAGCAAUAUUACGACCG | 0.563 ± 0.13 | 0.118 ± 0.086
42 | UGCAAGCAAUAUUACGACGA | 0.648 ± 0.087 | -0.804 ± 0.074
43 | UGCAAGCAAUAUUACGAGGU | -2.26 ± 0.17 | -3.41 ± 0.23
44 | UGCAAGCAAUAUUACGAGUG | -0.498 ± 0.062 | -1.42 ± 0.052
45 | UGCAAGCAAUAUUACGAUAU | -0.49 ± 0.1 | -3.42 ± 0.2
46 | UGCAAGCAAUAUUACGCAAU | -2.06 ± 0.32 | -3.55 ± 0.4
47 | UGCAAGCAAUAUUACGCACG | -0.955 ± 0.13 | -2.14 ± 0.3
48 | UGCAAGCAAUAUUACGCGAG | -2.36 ± 0.16 | -3.25 ± 0.15
49 | UGCAAGCAAUAUUACGCGGU | -2.25 ± 0.21 | -3.01 ± 0.23
50 | UGCAAGCAAUAUUACGGAUA | -0.698 ± 0.12 | -1.68 ± 0.11
